According to US20110294135, “COMPOSITIONS AND METHODS FOR ANALYTE DETECTION AND QUANTITATION” (BioDesic, LLC, published 2011):

B1: 100-mer DNA detection moiety (dsDNA)
DNA 1: CCCACTTCATTGTGCCAAAGTTTTGGGGTTGATAGAAAAGATAGAGGGTATAGTGAGTCGTATTAATTTCAGAATTCATTTCAAGGGTTCAGCGTGGGCG
DNA 2: CGCCCACGCTGAACCCTTGAAATGAATTCTGAAATTAATACGACTCACTATACCCTCTATCTTTTCTATCAACCCCAAAACTTTGGCACAATGAAGTGGG
B2: 80-mer DNA detection moiety (dsDNA)
DNA 1: TTTTGGGGTTGATAGAAAAGATAGAGGGTATAGTGAGTCGTATTAATTTCAGAATTCATTTCAAGGGTTCAGCGTGGGCG
DNA 2: CGCCCACGCTGAACCCTTGAAATGAATTCTGAAATTAATACGACTCACTATACCCTCTATCTTTTCTATCAACCCCAAAA

Legend:
[1] = biological target: T1, LG-268-NRE (Protein LG fused to Zif268-NRE six-finger zinc finger protein) (Artificial Sequence); experiment: EMSA; 0.03 mM protein, Tris-glycine, room temp 15-60 min, SYBR Gold; detector complex visible, further shifted by bovine IgG; details: tags: C-terminal His tag (pET20b(+)); N-terminal Protein LG fusion
[2] = biological target: T1, LG-268-NRE (Protein LG fused to …); experiment: EMSA; 0.03 mM protein, Tris-glycine, room temp 15-60 min, 4-20% acrylamide gel, SYBR Gold; detector complex visible, further shifted by bovine IgG; details: tags: C-terminal His tag (pET20b(+)); N-terminal Protein LG fusion
Method: Stock solutions of LG-268-NRE (0.1 mM), the DNA detection moiety (500 ng/μl for a 50-mer and 1 μg/μl for an 80- or 100-mers), the target analytes (Bovine IgG antibodies (Equitech Bio, B60-0010; Final concentration of 1 mg/ml), and loading buffer (Jule Tris-Glycine running buffer; Jule Inc.; Catalog Number: TGNRB10X) were combined at the same time and mixed in a microfuge tube in a final reaction volume of 75 μl. Final concentrations were as follows: 0.03 mM for LG-268-NRE, 100 ng/75 μl for the 50-mer, and 10 μg/75 μl for the 80- or 100-mers. The combined mixture was then allowed to sit for 15-60 minutes at room temperature (approximately 20-22° C.). Appropriate volumes of the controls and the mixed solution were then loaded into wells of acrylamide (50 μl) or agarose gels (75 μl) and run as described below. The agarose gels and the staining buffer are made with Jule Tris-Glycine running buffer (Jule Inc.; Catalog Number: TGNRB10X). The binding reactions are also performed with a range of protein concentrations and/or in the presence of salt, e.g., 50-100 mM KCl or NaCl. Molecular weight standards were: Bioline Hyperladder 1: BIO-33053; Hyperladder 2: BIO-33054; and Hyperladder 3: BIO-33055.

Row | Binder | binding result [1] | binding result [2]
1 | B1 | binds | –
2 | B2 | – | binds
